Assay results as given in patent US20080279856A1, “Inhibition of Bradykinin Release” (Novo Nordisk Pharmaceuticals, Inc., priority 1999, published 2008).

Assays:
rat insulinoma cells = settings: IL-1 induced; cited from earlier work
125I-BPTI = 125I-BPTI binding to HBP, scintillation proximity assay; set-up: species or system bovine
Procedure: (§1) The relative affinities of HBP and the mutants are determined by performing competition studies with […] of unlabeled BPTI.

[1] = as above; set-up: species or system bovine; settings: competition with unlabeled BPTI; read-out: apparent IC50 of 125I-BPTI binding
Procedure: as §1

fecal peritonitis = settings: HBP treatment; cited from earlier work
[2] = tested on: EC monolayers (HUVEC or BAEC); experiment: Albumin clearance (Evans blue dye-conjugated albumin) across EC monolayers after HBP stimulation; format: cell-based, human, bovine; settings: HBP 75 μg/ml; over a 60 min period
Procedure: Human umbilical vein endothelial cells (HUVEC) are isolated from fresh umbilical cords as described by Jaffe et al., 1973, J. Clin. Invest. 52:2745-2756), and bovine aorta endothelial cells (BAEC) are isolated according to the method of Booyse et al., 1975, Thromb. Diath. Haemmorrh. 24:825-839) with a few modifications. Briefly, the lumen of the umbilical vein or bovine aorta is incubated with a 0.25% collagenase solution for 10 min, and detached endothelial cells washed out with PBS. Harvested cells are pelleted and resuspended in culture medium, seeded in tissue culture flasks and incubated under standard conditions. Medium is changed every 48 h until cultures have reached confluence (3-5 days). […]
Cultured EC are detached by brief (2 min) trypsin-EDTA treatment (0.25% trypsin/0.01% EDTA) and replated onto either 0.2 μm pore size Anopore inorganic membrane or 3.0 μm pore size polycarbonate filters (Tissue Culture inserts, 10 mm; NUNC, Roskilde, Denmark). […] The ECs are grown to confluent monolayers, as assessed by daily microscopic observation and measurement of the electrical resistance across the monolayer.
Evans blue dye-conjugated albumin (EBA) is used as a marker for macromolecular permeability of the EC monolayers. […] In experiments where albumin permeability is analyzed, the culture medium in the upper compartment is exchanged for medium containing EBA. […]

[3] = tested on: hamster cheek pouch microvasculature; experiment: Intravital microscopy of hamster cheek pouch microvessel permeability; format: in vivo, Syrian golden hamsters; settings: topical HBP 75 μg/ml
Excerpt: In order to study the effect of PMN secretion products on microvessel permeability in vivo, intravital microscopy of the hamster cheek pouch microcirculation is applied. As previously described in detail (Raud & Lindbom, 1994, Immunology of the Microcirculation, Academic Press, 1994, chapter 7), the left cheek pouch of anaesthetized Syrian golden hamsters is everted and prepared for microscopic observation under continuous superfusion with a bicarbonate buffer maintaining physiological levels of temperature, pH and gas tensions. FITC-conjugated dextran (MW: 150.000) injected i.v. (250 mg/kg body weight) is used as plasma tracer to permit visualization of changes in vascular permeability to macromolecules. The microvasculature in the exposed cheek pouch is observed under low magnification in fluorescent light with a Leitz Orthoplan microscope and recorded on video. After control recordings, superfusion is stopped and 1 ml of medium containing CD18 cross-linking-evoked PMN secretion at 37° C. is topically applied to the cheek pouch. In parallel experiments, anti-CD18-treated PMN medium is not subjected to cross-linking is used.

B1: HBP: Native human heparin-binding protein, mature form with the amino acid sequence SEQ ID NO:1 (protein, listed as Homo sapiens)
chain: IVGGRKARPRQFPFLASIQNQGRHFCGGALIHARFVMTAASCFQSQNPGVSTVVLGAYDLRRRERQSRQTFSISSMSENGYDPQQNLNDLMLLQLDREANLTSSVTILPLPLQNATVEAGTRCQVAGWGSQRSGGRLSRFPRFVNVTVTPEDQCRPNNVCTGVLTRRGGICNGDGGTPLVCEGLAHGVASFSLGPCGRGPDFFTRVALFRDWIDGVLNNPGPGPA
- apoptosis (rat insulinoma cells): rescues rat insulinoma cells from IL-1 induced apoptosis
- binding of BPTI (125I-BPTI): binds BPTI
- IC50 [1]: ~7 nM
- survival (fecal peritonitis): rescue mice from an otherwise lethal injury
- net albumin clearance volume [2]: 20.4 ± 3.4 µL
- time of maximum leakage response after challenge [3]: 7 to 10 min
- time to complete disappearance of leakage [3]: ≤ 30 min
- time to visible leaky spots of fluorescent tracer [3]: ≤ 2 min
